Reference: article PMC3488082 (The Journal of Biological Chemistry, 2012)

Target: the molecule itself
Test: crystal structure

B1: Human aldehyde dehydrogenase-2 (ALDH2), wild-type (enzyme)
chain: SAAATQAVPAPNQQPEVFCNQIFINNEWHDAVSRKTFPTVNPSTGEVICQVAEGDKEDVDKAVKAARAAFQLGSPWRRMDASHRGRLLNRLADLIERDRTYLAALETLDNGKPYVISYLVDLDMVLKCLRYYAGWADKYHGKTIPIDGDFFSYTRHEPVGVCGQIIPWNFPLLMQAWKLGPALATGNVVVMKVAEQTPLTALYVANLIKEAGFPPGVVNIVPGFGPTAGAAIASHEDVDKVAFTGSTEIGRVIQVAAGSSNLKRVTLELGGKSPNIIMSDADMDWAVEQAHFALFFNQGQCCCAGSRTFVQEDIYDEFVERSVARAKSRVVGNPFDSKTEQGPQVDETQFKKILGYINTGKQEGAKLLCGGGIAADRGYFIQPTVFGDVQDGMTIAKEEIFGPVMQILKFKTIEEVVGRANNSTYGLAAAVFTKDLDKANYLSQALQAGTVWVNCYDVFGAQSPFGGYKMSGSGRELGEYGLQAYTEVKTVTVKVPQKNS
modifications: thionitrate adduct on Cys-302 (GTN-soaked crystal)
stoichiometry N: 4

B2: Human aldehyde dehydrogenase-2 (ALDH2) triple mutant E268Q/C301S/C303S (enzyme)
chain: SAAATQAVPAPNQQPEVFCNQIFINNEWHDAVSRKTFPTVNPSTGEVICQVAEGDKEDVDKAVKAARAAFQLGSPWRRMDASHRGRLLNRLADLIERDRTYLAALETLDNGKPYVISYLVDLDMVLKCLRYYAGWADKYHGKTIPIDGDFFSYTRHEPVGVCGQIIPWNFPLLMQAWKLGPALATGNVVVMKVAEQTPLTALYVANLIKEAGFPPGVVNIVPGFGPTAGAAIASHEDVDKVAFTGSTEIGRVIQVAAGSSNLKRVTLQLGGKSPNIIMSDADMDWAVEQAHFALFFNQGQSCSAGSRTFVQEDIYDEFVERSVARAKSRVVGNPFDSKTEQGPQVDETQFKKILGYINTGKQEGAKLLCGGGIAADRGYFIQPTVFGDVQDGMTIAKEEIFGPVMQILKFKTIEEVVGRANNSTYGLAAAVFTKDLDKANYLSQALQAGTVWVNCYDVFGAQSPFGGYKMSGSGRELGEYGLQAYTEVKTVTVKVPQKNS
stoichiometry N: 4
